Experimental data as given in US20200376136A1.
Residue numbers refer to the chain shown, from its start. Values belong to the binder of their own block, whether it stands above or below them.

Tests used:
[1] = target: cynomolgus CD3 (cynomolgus monkey) (UniProt Q95LI5); test: FACS titration on purified cynomolgus T cells
[2] = target: cynomolgus CD3 (cynomolgus monkey) (UniProt Q95LI5); test: cell-based or functional assay
[3] = target: cynomolgus CD3 (cynomolgus monkey) (UniProt Q95LI5); test: FACS titration of cynomolgus T cells

EC50 [1]: 7.27 nM
Cyno PBMC Proliferation [M] (donor) [2]: 4.59e-12 M
B1: BSSTEAP2/CD3-001 (bispecific antibody, IgG4, V domains shown)
VH 1: QVQLQQSGPGLVKPSQTLSLTCAISGDSVSSNRAAWNWIRQSPSRGLQWLGRTYYRSKWYNDYAVSLRSRITINPVTSKNQVALHMNSVTPEDTAVYYCARAGIVVVPGPETFYYYDHGLDVWGQGTTVTVSS
VH 2: EVQLVESGGGLVQPGRSLRLSCAASGFTFDDYSMHWVRQAPGKGLEWVSGISWNSGSKGYADSVKGRFTISRDNAKNSLYLQMNSLRAEDTALYYCAKYGSGYGKFYHYGLDVWGQGTTVTVSS
VL: DIQMTQSPSSLSASVGDRVTITCRASQSIRSYLNWYQQKPGKAPELLIHAASSLQSGVPSRFSGSGSGTDFTLTISSLQPEDFASYYCQQSYSAPPITFGQGTRLEIK

EC50 [1]: 17.3 nM
B2: BSSTEAP2/CD3-007 (bispecific antibody, V domains shown)
VH 1: B1 VH 1
VH 2: EVQLVESGGGLVQPGRSLRLSCAASGFTFADYTMHWVRQAPGKGLEWVSDISWNSGSIAYADSVKGRFTISRDNAKNSLYLQMNSLRTEDTAFYYCAKDSRGYGHYKYLGLDVWGQGTTVTVSS
VL: B1 VL

EC50 [1]: 7.99 nM
Cyno PBMC Proliferation [M] (donor) [2]: 1.53e-11 M
B3: BSSTEAP2/CD3-006 (bispecific antibody, V domains shown)
VH 1: B1 VH 1
VH 2: B1 VH 2 with A23V, G59D
VL: B1 VL

EC50 [3]: 1 to 40 nM
B4: CD3-VH-P (antibody, V domains shown)
VH: B1 VH 2 with A23V, G59D
VL: DIQMTQSPSSLSASVGDSVTITCRASQSINNYLNWYQQKPGKAPKLLIYTASSLLSGVPSRFSGSGSGTDFTLTISGLHPEDFATYFCQQSFSTPPITFGQGTRLDIK

EC50 [1]: 1.99 nM
B5: BSSTEAP2/CD3-004 (bispecific antibody, IgG4, V domains shown)
VH 1: QVQLVESGGGVVQPGRSLRLSCVASGFTISSYGMNWVRQAPGKGLEWVAVISYDGGNKYSVDSVKGRFTISRDNSKNTLYLQMNSLRAEDSAVYYCARGRYFDLWGRGTLVTVSS
VH 2: EVQLVESGGGLVQPGRSLRLSCAASGFTFADYTMHWVRQGPGTGLEWVSDIGWSGGSLGYADSVKGRFTISRDNAKNSLYLEMNNLRPEDTALYYCVKDKSGYGKFQYGLDVWGQGTTVTVSS
VL: DIQMTQSPSTLSASVGDRVTITCRASQSISSWLAWYQQKPGRAPNLLISKASSLKSGVPSRFSGSGSGTEFTLTVSSLQPDDFATYYCQQYYSYSYTFGQGTKLEIK
